Experimental data reported in publication PMC3760305, “Mimicking Protein–Protein Interactions through Peptide–Peptide Interactions: HIV-1 gp120 and CXCR4” (Frontiers in Immunology, 2013).

Each substance was assayed against CXCR4 mimetic peptide CX4-M1 (assay: SPR; Biacore X100, Biotin CAPture Kit; CX4-M1 (2 μM) bound to streptavidin; V3 loop peptides 5–0.3 μM; HBS-N (10 mM HEPES, 150 mM NaCl, pH 7.4), 0.05% Tween 20, 100 mM MgCl2; no sCD4). Conditions: not given.

| Substance | Kd [nM] |
| --- | --- |
| V3 loop peptide V3_(HxBc2) | 300 |

Each substance was assayed against CXCR4 mimetic peptide CX4-M1 (assay: SPR; Biacore X100, Biotin CAPture Kit; CX4-M1 (2 μM) bound to streptavidin; gp120 8–0.5 nM; HBS-N (10 mM HEPES, 150 mM NaCl, pH 7.4), 0.05% Tween 20, 2.5 mM MgCl2; no sCD4). Conditions: not given.

| Substance | Kd [nM] |
| --- | --- |
| Gp120_(IIIB) (natural protein) | 100 |
| gp120_(HxBc2) (from UniProt P04578 33-511) (natural protein) | 200 |
| gp120MN (natural protein) | 700 |

The substances below were run against CXCR4 mimetic peptide CX4-M1 (assay: direct ELISA). Conditions: parent: 1; read off a plot.

| Substance | ratio to parent |
| --- | --- |
| V3 loop peptide V3_(HxBc2) I320A | 0.16 |
| V3 loop peptide V3_(HxBc2) K322A | 2.1 |
| V3 loop peptide V3_(HxBc2) F317A | 0.16 |
| V3 loop peptide V3_(HxBc2) I309A | 0.13 |
| V3 loop peptide V3_(HxBc2) G324A | 1.4 |
| V3 loop peptide V3_(HxBc2) R311A | 1.4 |
| V3 loop peptide V3_(HxBc2) R308A | 0.57 |
| V3 loop peptide V3_(HxBc2) I307A | 0.18 |
| V3 loop peptide V3_(HxBc2) Q310A | 1 |
| V3 loop peptide V3_(HxBc2) N325A | 1.3 |
| V3 loop peptide V3_(HxBc2) G312A | 0.82 |
| V3 loop peptide V3_(HxBc2) I323A | 0.53 |
| V3 loop peptide V3_(HxBc2) G321A | 0.7 |
| V3 loop peptide V3_(HxBc2) V318A | 0.41 |
| V3 loop peptide V3_(HxBc2) R315A | 0.46 |
| V3 loop peptide V3_(HxBc2) R306A | 0.78 |
| V3 loop peptide V3_(HxBc2) G314A | 0.86 |
| V3 loop peptide V3_(HxBc2) M326A | 1.3 |
| V3 loop peptide V3_(HxBc2) P313A | 0.67 |
| V3 loop peptide V3_(HxBc2) T319A | 0.63 |
